Reference: US12123876B2, “Antibody binding to HEG1 and use of the antibody for detection and treatment of mesothelioma” (Kanagawa Prefectural Hospital Organization, priority 2016, dated 2024)

Tested on: SKM9-2 antibody
Assay: Western blot reactivity of human HEG1 fragments expressed in ACC-MESO-1 with SKM9-2 antibody
Assay type: binding, mouse
Conditions: Western blot of cell lysate
Procedure: In this Example, the mesothelioma cell line ACC-MESO-1 was allowed to express a human HEG1 fragment with the endogenous HEG1 of ACC-MESO-1 knocked down, and the reactivity with the SKM9-2 antibody was examined. Subsequently, the reactivity with the antibody was tested for the epitope region through alanine scanning, and key amino acids for binding to the antibody were determined.
Gene transfer was performed with HEG1 siRNA (H9106) (SEQ ID NOs: 40, 41) and human HEG1 for the mesothelioma cell line ACC-MESO-1, and the reactivity of the SKM9-2 was examined through Western blot analysis. A full length protein (HEG1 full length) or a fragment (HEG1 3 kb, HEG1 2 kb, or HEG1 1 kb) of the human HEG1 was used. The full length human HEG1 protein, a protein having the amino acid sequence set forth in SEQ ID NO: 35, was obtained through inserting a base sequence set forth in SEQ ID NO: 34 into pFLAG-CMV1 (Sigma-Aldrich Japan K.K.) to obtain a plasmid, transforming the plasmid, and allowing the mesothelioma cell line to express the plasmid. Fragment HEG1 3 kb was obtained through inserting a fragment corresponding to a sequence from position 285, leucine, to position 1387, phenylalanine, of SEQ ID NO: 35 into pFLAG-CMV1 (Sigma-Aldrich Japan K.K.) in an in-frame manner, and allowing the mesothelioma cell line to express the resultant. HEG1 2 kb and HEG1 1 kb were obtained through allowing the mesothelioma cell line to express products similarly obtained from a fragment corresponding to a sequence from position 677, leucine, to position 1387, phenylalanine, of SEQ ID NO: 35 and a fragment corresponding to a sequence from position 992, valine, to position 1387, phenylalanine, of SEQ ID NO: 35, respectively. Each cell lysate was analyzed through Western blot with the SKM9-2 antibody.
Further, the region in exon 7 of HEG1 was analyzed in detail. The amino acid sequence of a part of exon 7 of HEG1 was connected to the N-terminal side of a protein obtained by connecting a GPI anchor signal to human SLURP1 (SEQ ID NO: 42; hereinafter referred to as “SLURPgpi”) to produce a fusion protein, and the reactivity of the SKM9-2 was examined through Western blot analysis with the fusion protein. A signal sequence (SEQ ID NO: 43) was added to the N-terminal of the fusion protein before expression.
Used fusion proteins of a partial sequence of exon 7 of HEG1 and SLURPgpi were as follows: • a fragment obtained by bonding a fragment from amino acid No. 783, aspartic acid, to amino acid No. 991, serine, to SLURPgpi (7.6); • a fragment obtained by bonding a fragment from amino acid No. 832, glutamine, to amino acid No. 991, serine, to SLURPgpi (7.7); • a fragment obtained by bonding a fragment from amino acid No. 886, glutamine, to amino acid No. 991, serine, to SLURPgpi (7.8); • a fragment obtained by bonding a fragment from amino acid No. 941, alanine, to amino acid No. 991, serine, to SLURPgpi (7.9); • a fragment obtained by bonding SEQ ID NO: 44 to SLURPgpi (7.61); • a fragment obtained by bonding SEQ ID NO: 45 to SLURPgpi (7.62); • a fragment obtained by bonding SEQ ID NO: 46 to SLURPgpi (7.63); • a fragment obtained by bonding SEQ ID NO: 47 to SLURPgpi (7.64); • a fragment obtained by bonding SEQ ID NO: 48 to SLURPgpi (7.623); • a fragment obtained by bonding SEQ ID NO: 49 to SLURPgpi (7.6231); • a fragment obtained by bonding SEQ ID NO: 50 to SLURPgpi (7.6232); • a fragment obtained by bonding SEQ ID NO: 51 to SLURPgpi (7.6241); and • a fragment obtained by bonding SEQ ID NO: 52 to SLURPgpi (7.6242).

Molecule | Binding to SKM9-2 antibody (positive/negative)
HEG1 full length: full length human HEG1 protein, SEQ ID NO: 35, expressed in mesothelioma cell line (protein, listed as Homo sapiens) MASPRASRWPPPLLLLLLPLLLLPPAAPGTRDPPPSPARRALSLAPLAGAGLELQLERRPEREPPPTPPRERRGPATPGPSYRAPEPGAATQRGPSGRAPRGGSADAAWKHWPESNTEAHVENITFYQNQEDFSTVSSKEGVMVQTSGKSHAASDAPENLTLLAETADARGRSGSSSRTNFTILPVGYSLEIATALTSQSGNLASESLHLPSSSSEFDERIAAFQTKSGTASEMGTERAMGLSEEWTVHSQEATTSAWSPSFLPALEMGELTTPSRKRNSSGPDLSWLHFYRTAASSPLLDLSSSSESTEKLNNSTGLQSSSVSQTKTMHVATVFTDGGPRTLRSLTVSLGPVSKTEGFPKDSRIATTSSSVLLSPSAVESRRNSRVTGNPGDEEFIEPSTENEFGLTSLRWQNDSPTFGEHQLASSSEVQNGSPMSQTETVSRSVAPMRGGEITAHWLLTNSTTSADVTGSSASYPEGVNASVLTQFSDSTVQSGGSHTALGDRSYSESSSTSSSESLNSSAPRGERSIAGISYGQVRGTAIEQRTSSDHTDHTYLSSTFTKGERALLSITDNSSSSDIVESSTSYIKISNSSHSEYSSFFHAQTERSNISSYDGEYAQPSTESPVLHTSNLPSYTPTINMPNTSVVLDTDAEFVSDSSSSSSSSSSSSSSSSSSSSGPPLPLPSVSQSHHLFSSILPSTRASVHLLKSTSDASTPWSSSPSPLPVSLTTSTSAPLSVSQTTLPQSSSTPVLPRARETPVTSFQTSTMTSFMTMLHSSQTADLKSQSTPHQEKVITESKSPSLVSLPTESTKAVTTNSPLPPSLTESSTEQTLPATSTNLAQMSPTFTTTILKTSQPLMTTPGTLSSTASLVTGPIAVQTTAGKQLSLTHPEILVPQISTEGGISTERNRVIVDATSGLIPLTSVPTSAKEMTTKLGVTAEYSPASRSLGTSPSPQTTVVSTAEDLAPKSATFAVQSSTQSPTTLSSSASVNSCAVNPCLHNGECVADNTSRGYHCRCPPSWQGDDCSVDVNECLSNPCPSTAMCNNTQGSFICKCPVGYQLEKGICNLVRTFVTEFKLKRTFLNTTVEKHSDLQEVENEITKTLNMCFSALPSYIRSTVHASRESNAVVISLQTTFSLASNVTLFDLADRMQKCVNSCKSSAEVCQLLGSQRRIFRAGSLCKRKSPECDKDTSICTDLDGVALCQCKSGYFQFNKMDHSCRACEDGYRLENETCMSCPFGLGGLNCGNPYQLITVVIAAAGGGLLLILGIALIVTCCRKNKNDISKLIFKSGDFQMSPYAEYPKNPRSQEWGREAIEMHENGSTKNLLQMTDVYYSPTSVRNPELERNGLYPAYTGLPGSRHSCIFPGQYNPSFISDESRRRDYF | positive
HEG1 2 kb: HEG1 fragment, position 677 leucine to position 1387 phenylalanine of SEQ ID NO: 35 (protein, listed as Homo sapiens) SSGPPLPLPSVSQSHHLFSSILPSTRASVHLLKSTSDASTPWSSSPSPLPVSLTTSTSAPLSVSQTTLPQSSSTPVLPRARETPVTSFQTSTMTSFMTMLHSSQTADLKSQSTPHQEKVITESKSPSLVSLPTESTKAVTTNSPLPPSLTESSTEQTLPATSTNLAQMSPTFTTTILKTSQPLMTTPGTLSSTASLVTGPIAVQTTAGKQLSLTHPEILVPQISTEGGISTERNRVIVDATSGLIPLTSVPTSAKEMTTKLGVTAEYSPASRSLGTSPSPQTTVVSTAEDLAPKSATFAVQSSTQSPTTLSSSASVNSCAVNPCLHNGECVADNTSRGYHCRCPPSWQGDDCSVDVNECLSNPCPSTAMCNNTQGSFICKCPVGYQLEKGICNLVRTFVTEFKLKRTFLNTTVEKHSDLQEVENEITKTLNMCFSALPSYIRSTVHASRESNAVVISLQTTFSLASNVTLFDLADRMQKCVNSCKSSAEVCQLLGSQRRIFRAGSLCKRKSPECDKDTSICTDLDGVALCQCKSGYFQFNKMDHSCRACEDGYRLENETCMSCPFGLGGLNCGNPYQLITVVIAAAGGGLLLILGIALIVTCCRKNKNDISKLIFKSGDFQMSPYAEYPKNPRSQEWGREAIEMHENGSTKNLLQMTDVYYSPTSVRNPELERNGLYPAYTGLPGSRHSCIFPGQYNPSFISDESRRRDYF | positive
HEG1 1 kb: HEG1 fragment, position 992 valine to position 1387 phenylalanine of SEQ ID NO: 35 (protein, listed as Homo sapiens) VNSCAVNPCLHNGECVADNTSRGYHCRCPPSWQGDDCSVDVNECLSNPCPSTAMCNNTQGSFICKCPVGYQLEKGICNLVRTFVTEFKLKRTFLNTTVEKHSDLQEVENEITKTLNMCFSALPSYIRSTVHASRESNAVVISLQTTFSLASNVTLFDLADRMQKCVNSCKSSAEVCQLLGSQRRIFRAGSLCKRKSPECDKDTSICTDLDGVALCQCKSGYFQFNKMDHSCRACEDGYRLENETCMSCPFGLGGLNCGNPYQLITVVIAAAGGGLLLILGIALIVTCCRKNKNDISKLIFKSGDFQMSPYAEYPKNPRSQEWGREAIEMHENGSTKNLLQMTDVYYSPTSVRNPELERNGLYPAYTGLPGSRHSCIFPGQYNPSFISDESRRRDYF | negative
HEG1 3 kb: HEG1 fragment, position 285 leucine to position 1387 phenylalanine of SEQ ID NO: 35 (protein, listed as Homo sapiens) LSWLHFYRTAASSPLLDLSSSSESTEKLNNSTGLQSSSVSQTKTMHVATVFTDGGPRTLRSLTVSLGPVSKTEGFPKDSRIATTSSSVLLSPSAVESRRNSRVTGNPGDEEFIEPSTENEFGLTSLRWQNDSPTFGEHQLASSSEVQNGSPMSQTETVSRSVAPMRGGEITAHWLLTNSTTSADVTGSSASYPEGVNASVLTQFSDSTVQSGGSHTALGDRSYSESSSTSSSESLNSSAPRGERSIAGISYGQVRGTAIEQRTSSDHTDHTYLSSTFTKGERALLSITDNSSSSDIVESSTSYIKISNSSHSEYSSFFHAQTERSNISSYDGEYAQPSTESPVLHTSNLPSYTPTINMPNTSVVLDTDAEFVSDSSSSSSSSSSSSSSSSSSSSGPPLPLPSVSQSHHLFSSILPSTRASVHLLKSTSDASTPWSSSPSPLPVSLTTSTSAPLSVSQTTLPQSSSTPVLPRARETPVTSFQTSTMTSFMTMLHSSQTADLKSQSTPHQEKVITESKSPSLVSLPTESTKAVTTNSPLPPSLTESSTEQTLPATSTNLAQMSPTFTTTILKTSQPLMTTPGTLSSTASLVTGPIAVQTTAGKQLSLTHPEILVPQISTEGGISTERNRVIVDATSGLIPLTSVPTSAKEMTTKLGVTAEYSPASRSLGTSPSPQTTVVSTAEDLAPKSATFAVQSSTQSPTTLSSSASVNSCAVNPCLHNGECVADNTSRGYHCRCPPSWQGDDCSVDVNECLSNPCPSTAMCNNTQGSFICKCPVGYQLEKGICNLVRTFVTEFKLKRTFLNTTVEKHSDLQEVENEITKTLNMCFSALPSYIRSTVHASRESNAVVISLQTTFSLASNVTLFDLADRMQKCVNSCKSSAEVCQLLGSQRRIFRAGSLCKRKSPECDKDTSICTDLDGVALCQCKSGYFQFNKMDHSCRACEDGYRLENETCMSCPFGLGGLNCGNPYQLITVVIAAAGGGLLLILGIALIVTCCRKNKNDISKLIFKSGDFQMSPYAEYPKNPRSQEWGREAIEMHENGSTKNLLQMTDVYYSPTSVRNPELERNGLYPAYTGLPGSRHSCIFPGQYNPSFISDESRRRDYF | positive
